According to US20190270826A1 (Janssen / Centocor, published 2019):

Experiments:
[1] = biological target: T1, rat IL1RAP ECD displayed on HEK-293F cells (pDisplay) (rat, UniProt Q63621 21-367); assay: MSD cell binding, HEK-293F Rat clone 1 cells displaying rat IL1RAP ECD
T1 sequence: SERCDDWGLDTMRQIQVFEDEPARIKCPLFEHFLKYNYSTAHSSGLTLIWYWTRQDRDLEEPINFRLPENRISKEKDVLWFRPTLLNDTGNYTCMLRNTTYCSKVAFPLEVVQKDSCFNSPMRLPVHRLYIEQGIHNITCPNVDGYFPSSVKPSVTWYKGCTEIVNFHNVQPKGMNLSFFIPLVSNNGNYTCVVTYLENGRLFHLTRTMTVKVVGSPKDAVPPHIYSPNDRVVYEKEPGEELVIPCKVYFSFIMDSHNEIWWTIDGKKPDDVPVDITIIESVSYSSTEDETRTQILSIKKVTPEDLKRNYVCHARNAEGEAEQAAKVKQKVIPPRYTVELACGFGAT
Procedure: (§1) Cells were immobilized and IL1RAP antibody samples were assayed in triplicate. Briefly, expression supernatants of purified IL1RAP antibodies were normalized to 10 μg/mL. 5000 cells per well were plated into a 384 well plate (MA6000, cat. L21XB, MSD) and allowed to adhere for 2 hr. Cells were then blocked with 20% FBS in PBS (Gibco) for 15 mins. Antibody supernatants were then added and left at RT for 1 hr. Cells were washed 3 times with PBS and a ruthenium labeled secondary antibody (Mesoscale Discovery) was then added at 2 μg/mL and incubated for 1 hour at room temperature. A further washing step was then applied and 35 μL per well of 2×MSD Read buffer T (surfactant free) was then added and incubated for 5-30 minutes for detection. Plates were then read using Sector Imager 2400 (MSD). Data was normalized to controls and graphed using GraphPad Prism Version 5. A positive binder was determined to be a hit with a signal 3× greater than parental cell line background.
(§2) The MSD cell binding assay described in Example 4 was used to assess IL1RAP binding.

[2] = biological target: T2, human IL1RAP on cells (endogenous) (human, UniProt Q9NPH3 21-570); assay: cell-based or functional assay
T2 sequence (looked up): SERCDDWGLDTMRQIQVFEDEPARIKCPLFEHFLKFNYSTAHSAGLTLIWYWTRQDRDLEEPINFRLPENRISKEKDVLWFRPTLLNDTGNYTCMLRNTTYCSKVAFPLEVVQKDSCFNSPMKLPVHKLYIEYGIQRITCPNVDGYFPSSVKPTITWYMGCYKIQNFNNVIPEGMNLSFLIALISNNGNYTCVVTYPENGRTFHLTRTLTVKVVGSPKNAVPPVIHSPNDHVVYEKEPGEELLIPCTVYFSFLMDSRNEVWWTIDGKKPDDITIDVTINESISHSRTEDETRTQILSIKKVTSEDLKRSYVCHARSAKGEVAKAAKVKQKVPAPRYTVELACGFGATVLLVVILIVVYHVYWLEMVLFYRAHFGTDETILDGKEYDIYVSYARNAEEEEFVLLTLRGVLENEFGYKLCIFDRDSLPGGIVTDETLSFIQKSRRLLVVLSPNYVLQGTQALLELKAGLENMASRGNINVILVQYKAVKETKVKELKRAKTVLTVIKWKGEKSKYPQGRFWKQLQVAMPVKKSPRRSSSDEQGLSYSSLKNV

[3] = biological target: T2, human IL1RAP on cells (endogenous); assay: cell-based or functional assay; remark: listed apart in the source
human FcγRI = biological target: T3, human FcγRI (human, UniProt P12314 16-292, limits assumed); assay: AlphaScreen competition, human FcγRI (n=1); displaced: biotinylated control mAb B21M hIgG1 AlaAla; pH 7.2
T3 construct: GST-tagged, on glutathione acceptor beads; also called FcγRT [sic]
Source text: Measurements were made using an AlphaScreen™ assay (Amplified Luminescent Proximity Homogeneous Assay (ALPHA), PerkinElmer, Wellesley, Mass.), a bead-based luminescent proximity assay. Laser excitation of a donor bead excites oxygen, which if sufficiently close to the acceptor bead generates a cascade of chemiluminescent events, ultimately leading to fluorescence emission at 520-620 nm.

[4] = biological target: T4, human IL1RAP ECD displayed on HEK-293F cells (pDisplay) (human, UniProt Q9NPH3 21-367); assay: MSD cell binding, HEK-293F Human (clone HE2) cells displaying human IL1RAP ECD
T4 construct: also called Human clone HE2 IL1RAP FL-ECD cell line
T4 sequence: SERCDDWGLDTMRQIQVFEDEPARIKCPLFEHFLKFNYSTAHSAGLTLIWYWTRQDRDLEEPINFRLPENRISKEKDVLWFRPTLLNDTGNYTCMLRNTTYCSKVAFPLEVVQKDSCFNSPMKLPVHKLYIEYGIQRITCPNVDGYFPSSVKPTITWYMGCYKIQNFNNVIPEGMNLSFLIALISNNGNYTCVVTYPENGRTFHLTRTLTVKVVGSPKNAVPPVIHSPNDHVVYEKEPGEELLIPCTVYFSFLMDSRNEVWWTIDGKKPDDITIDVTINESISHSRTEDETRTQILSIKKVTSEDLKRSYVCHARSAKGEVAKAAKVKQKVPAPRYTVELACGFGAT
Procedure: as §1, §2

T3 sequence (P12314 16-292 limits assumed): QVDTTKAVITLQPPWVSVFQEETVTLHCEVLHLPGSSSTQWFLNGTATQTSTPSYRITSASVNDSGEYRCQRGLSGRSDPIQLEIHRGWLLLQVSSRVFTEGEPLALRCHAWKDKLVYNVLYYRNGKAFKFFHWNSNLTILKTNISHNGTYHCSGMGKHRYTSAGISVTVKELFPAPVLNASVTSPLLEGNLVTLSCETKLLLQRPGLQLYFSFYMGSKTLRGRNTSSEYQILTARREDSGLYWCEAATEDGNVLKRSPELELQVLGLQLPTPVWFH

binding result [1]: no binding (tested: 100 µg/mL)
mean EC50, T-cell activation, OCI-AML5 cells in whole blood, 48 h [2]: 5.99 nM
EC50, caspase area/well AUC, Calu-3 with T cells, 72 h [3]: 0.716 nM
EC50, caspase area/well AUC, DU145 with T cells, 72 h [3]: 0.445 nM
EC50, caspase area/well AUC, H196 with T cells, 72 h [3]: 0.019 nM
EC50, caspase area/well AUC, H226 with T cells, 72 h [3]: 0.134 nM
EC50, caspase area/well AUC, H716 with T cells, 72 h [3]: 0.004 nM
EC50, caspase area/well AUC, H1975 with T cells, 72 h [3]: 0.013 nM
EC50, caspase area/well AUC, H2172 with T cells, 72 h [3]: 0.039 nM
EC50, caspase area/well AUC, H2228 with T cells, 72 h [3]: 0.043 nM
EC50, caspase area/well AUC, LNCAP with T cells, 72 h [3]: 0.039 nM
EC50, caspase area/well AUC, PC3 with T cells, 72 h [3]: 0.102 nM
EC50, caspase area/well AUC, Panc0213 with T cells, 72 h [3]: 0.192 nM
EC50, caspase area/well AUC, Panc0327 with T cells, 72 h [3]: 0.181 nM
EC50, caspase area/well AUC, SKMES-1 with T cells, 72 h [3]: 0.031 nM
EC50, caspase area/well AUC, SW1271 with T cells, 72 h [3]: 0.078 nM
IC50 (read off the curve) (human FcγRI): ~90 nM
EC50 (read off the curve) [4]: ~1 mg/L
B1: IC3B19 (bispecific antibody, human IgG4 S228P, kappa, lambda, F234A L235A)
heavy 1: EVQLVESGGGLVQPGGSLRLSCAASGFTFNTYAMNWVRQAPGKGLEWVARIRSKYNNYATYYAASVKGRFTISRDDSKNSLYLQMNSLKTEDTAVYYCARHGNFGNSYVSWFAYWGQGTLVTVSSASTKGPSVFPLAPCSRSTSESTAALGCLVKDYFPEPVTVSWNSGALTSGVHTFPAVLQSSGLYSLSSVVTVPSSSLGTKTYTCNVDHKPSNTKVDKRVESKYGPPCPPCPAPEAAGGPSVFLFPPKPKDTLMISRTPEVTCVVVDVSQEDPEVQFNWYVDGVEVHNAKTKPREEQFNSTYRVVSVLTVLHQDWLNGKEYKCKVSNKGLPSSIEKTISKAKGQPREPQVYTLPPSQEEMTKNQVSLTCLVKGFYPSDIAVEWESNGQPENNYKTTPPVLDSDGSFLLYSKLTVDKSRWQEGNVFSCSVMHEALHNHYTQKSLSLSLGK
light 1: QTVVTQEPSLTVSPGGTVTLTCRSSTGAVTTSNYANWVQQKPGQAPRGLIGGTNKRAPGTPARFSGSLLGGKAALTLSGVQPEDEAEYYCALWYSNLWVFGGGTKLTVLGQPKAAPSVTLFPPSSEELQANKATLVCLISDFYPGAVTVAWKADSSPVKAGVETTTPSKQSNNKYAASSYLSLTPEQWKSHRSYSCQVTHEGSTVEKTVAPTECS
heavy 2: not shown
light 2: DIQLTQSPSFLSASVGDRVTITCRASQGISSYLAWYQQKPGKAPKLLIYAASTLQSGVPSRFSGSGSGTEFTLTISSLQPEDFATYYCQQVNSYPLTFGGGTKVEIKRTVAAPSVFIFPPSDEQLKSGTASVVCLLNNFYPREAKVQWKVDNALQSGNSQESVTEQDSKDSTYSLSSTLTLSKADYEKHKVYACEVTHQGLSSPVTKSFNRGEC
notes: IgG4-PAA, Fab arm exchange; also called IAPB57 x CD3B219; IL1RAP x CD3
mean EC50, cytotoxicity of OCI-AML5 cells in whole blood, 48 h [2]: 3.13 nM
